B1: PLAGL1 (parent)
chain: DPNKMAFGCEECGKKYNTMLGYKR
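Further: lentivirally expressed fusions sorted by FACS into six bins by GFP to DsRed ratio, PSI derived from sequencing read proportions per bin multiplied by bin number.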

In this data set the parent is B1. Nature of the data set: protein stability index of a GFP-peptide fusion (GPS, HEK-293T) (PSI 1-6); higher = more stable. Particulars: c terminus: a fixed tail appended.
Turning to DPNKMAFGCEECGMKYNTMLGYKR [K14M], the protein stability index is 2.56.
Regarding DPNKMAFGCEECGIKYNTMLGYKR [K14I], the protein stability index turned out to be 2.46.
Turning to DPNKMAFGCEECGWKYNTMLGYKR [K14W], the protein stability index is 3.05.
The result for DPNKMAFGCEECGRKYNTMLGYKR [K14R] reads 1.99; that for DPNKMAFGCEECGEKYNTMLGYKR [K14E], 3.44; that for DPNKMAFGCEECGDKYNTMLGYKR [K14D], 2.98.
The result for DPNKMAFGCEECGYKYNTMLGYKR [K14Y] reads 1.95; that for DPNKMAFGCEECGAKYNTMLGYKR [K14A], 2.93; that for DPNKMAFGCEECGQKYNTMLGYKR [K14Q], 3.04.
The result for DPNKMAFGCEECGVKYNTMLGYKR [K14V] reads 2.37.
Consider DPNKMAFGCEECGNKYNTMLGYKR [K14N], for which the protein stability index is 3.06.
Take DPNKMAFGCEECGFKYNTMLGYKR [K14F]: the protein stability index was determined as 2.23.
Turning to DPNKMAFGCEECGTKYNTMLGYKR [K14T], the protein stability index was found to be 3.14.
As for DPNKMAFGCEECGSKYNTMLGYKR [K14S], the protein stability index was determined as 2.39.
The same measure for DPNKMAFGCEECGHKYNTMLGYKR [K14H]: 1.99; for DPNKMAFGCEECGLKYNTMLGYKR [K14L]: 1.54; for DPNKMAFGCEECGPKYNTMLGYKR [K14P]: 2.88.
The same measure for DPNKMAFGCEECGGKYNTMLGYKR [K14G]: 2.29; for DPNKMAFGCKECGKKYNTMLGYKR [E10K]: 2.6; for DPNKMAFGCHECGKKYNTMLGYKR [E10H]: 2.11.
The same measure for DPNKMAFGCGECGKKYNTMLGYKR [E10G]: 2.3; for DPNKMAFGCMECGKKYNTMLGYKR [E10M]: 1.96; for DPNKMAFGCYECGKKYNTMLGYKR [E10Y]: 1.92.
For the variant DPNKMAFGCWECGKKYNTMLGYKR [E10W], the protein stability index worked out at 3.11.
Consider DPNKMAFGCRECGKKYNTMLGYKR [E10R], for which the protein stability index amounted to 1.64.
As to DPNKMAFGCSECGKKYNTMLGYKR [E10S], the protein stability index amounted to 3.23.
The same measure for DPNKMAFGCCECGKKYNTMLGYKR [E10C]: 1.74; for DPNKMAFGCPECGKKYNTMLGYKR [E10P]: 2.3; for DPNKMAFGCIECGKKYNTMLGYKR [E10I]: 2.51.
For the variant DPNKMAFGCVECGKKYNTMLGYKR [E10V], the protein stability index was 2.37.
Regarding DPNKMAFGCFECGKKYNTMLGYKR [E10F], the protein stability index was found to be 2.4.
As for DPNKMAFGCQECGKKYNTMLGYKR [E10Q], the protein stability index amounted to 2.54.
The same measure for DPNKMAFGCNECGKKYNTMLGYKR [E10N]: 2.29; for DPNKMAFGCAECGKKYNTMLGYKR [E10A]: 1.74.
Turning to DPNKMAFGCTECGKKYNTMLGYKR [E10T], the protein stability index turned out to be 2.21.
As for DPNKMAFGCLECGKKYNTMLGYKR [E10L], the protein stability index came to 1.92.
The result for DPNKMAFGCEECGKKLNTMLGYKR [Y16L] reads 3.25; that for DPNKMAFGCEECGKKTNTMLGYKR [Y16T], 3.51.
The same measure for DPNKMAFGCEECGKKINTMLGYKR [Y16I]: 2.13.
Regarding DPNKMAFGCEECGKKRNTMLGYKR [Y16R], the protein stability index turned out to be 3.4.
DPNKMAFGCEECGKKNNTMLGYKR [Y16N]: the protein stability index worked out at 3.04.
Consider DPNKMAFGCEECGKKMNTMLGYKR [Y16M], for which the protein stability index came to 2.71.
For the variant DPNKMAFGCEECGKKSNTMLGYKR [Y16S], the protein stability index came out at 2.62.
For DPNKMAFGCEECGKKFNTMLGYKR [Y16F], the protein stability index amounted to 2.68.
As to DPNKMAFGCEECGKKWNTMLGYKR [Y16W], the protein stability index worked out at 2.72.
Turning to DPNKMAFGCEECGKKVNTMLGYKR [Y16V], the protein stability index was found to be 2.73.
The result for DPNKMAFGCEECGKKENTMLGYKR [Y16E] reads 3.2.
For DPNKMAFGCEECGKKPNTMLGYKR [Y16P], the protein stability index was found to be 3.07.
The result for DPNKMAFGCEECGKKGNTMLGYKR [Y16G] reads 2.17; that for DPNKMAFGCEECGKKDNTMLGYKR [Y16D], 2.88.
The result for DPNKMAFGCEECGKKHNTMLGYKR [Y16H] reads 2.73; that for DPNKMAFGCEECGKKCNTMLGYKR [Y16C], 2.58; that for DPNKMAFGCEECGKKANTMLGYKR [Y16A], 2.82.
The same measure for DPNKMAFGCEECGKKQNTMLGYKR [Y16Q]: 2.44.
For the variant DPNKMAFGCEECGKKKNTMLGYKR [Y16K], the protein stability index amounted to 3.16.
As for DPNKMAFGCEHCGKKYNTMLGYKR [E11H], the protein stability index was 2.28.
The result for DPNKMAFGCEACGKKYNTMLGYKR [E11A] reads 2.96.
The same measure for DPNKMAFGCEMCGKKYNTMLGYKR [E11M]: 2.68; for DPNKMAFGCETCGKKYNTMLGYKR [E11T]: 1.9; for DPNKMAFGCEVCGKKYNTMLGYKR [E11V]: 2.79.
The result for DPNKMAFGCEKCGKKYNTMLGYKR [E11K] reads 2.49; that for DPNKMAFGCELCGKKYNTMLGYKR [E11L], 3.19.
Regarding DPNKMAFGCEICGKKYNTMLGYKR [E11I], the protein stability index worked out at 2.45.
For the variant DPNKMAFGCEWCGKKYNTMLGYKR [E11W], the protein stability index worked out at 1.37.
The result for DPNKMAFGCESCGKKYNTMLGYKR [E11S] reads 2.5.
For DPNKMAFGCERCGKKYNTMLGYKR [E11R], the protein stability index turned out to be 1.53.
The result for DPNKMAFGCEPCGKKYNTMLGYKR [E11P] reads 2.83.
The result for DPNKMAFGCEYCGKKYNTMLGYKR [E11Y] reads 1.92; that for DPNKMAFGCEFCGKKYNTMLGYKR [E11F], 1.85; that for DPNKMAFGCEDCGKKYNTMLGYKR [E11D], 2.65.
As to DPNKMAFGCENCGKKYNTMLGYKR [E11N], the protein stability index turned out to be 2.52.
The result for DPNKMAFGCECCGKKYNTMLGYKR [E11C] reads 1.44; that for DPNKMAFGCEQCGKKYNTMLGYKR [E11Q], 1.99; that for DPNKMAFGCEGCGKKYNTMLGYKR [E11G], 1.77.
For the variant DPNKMAFGMEECGKKYNTMLGYKR [C9M], the protein stability index was 3.16.
For DPNKMAFGGEECGKKYNTMLGYKR [C9G], the protein stability index is 3.67.
Take DPNKMAFGNEECGKKYNTMLGYKR [C9N]: the protein stability index worked out at 4.01.
On to DPNKMAFGSEECGKKYNTMLGYKR [C9S], for which the protein stability index was 4.08.
The result for DPNKMAFGVEECGKKYNTMLGYKR [C9V] reads 4.21.
As for DPNKMAFGFEECGKKYNTMLGYKR [C9F], the protein stability index came to 3.32.
Consider DPNKMAFGWEECGKKYNTMLGYKR [C9W], for which the protein stability index came out at 3.01.
In the case of DPNKMAFGEEECGKKYNTMLGYKR [C9E], the protein stability index turned out to be 3.52.
The result for DPNKMAFGYEECGKKYNTMLGYKR [C9Y] reads 3.61; that for DPNKMAFGDEECGKKYNTMLGYKR [C9D], 3.78; that for DPNKMAFGTEECGKKYNTMLGYKR [C9T], 4.07.
As to DPNKMAFGKEECGKKYNTMLGYKR [C9K], the protein stability index was determined as 3.6.
In the case of DPNKMAFGPEECGKKYNTMLGYKR [C9P], the protein stability index is 3.43.
In the case of DPNKMAFGLEECGKKYNTMLGYKR [C9L], the protein stability index came to 3.9.
The result for DPNKMAFGIEECGKKYNTMLGYKR [C9I] reads 3.32; that for DPNKMAFGREECGKKYNTMLGYKR [C9R], 4.08.
Consider DPNKMAFGQEECGKKYNTMLGYKR [C9Q], for which the protein stability index is 4.16.
On to DPNKMAFGAEECGKKYNTMLGYKR [C9A], for which the protein stability index was found to be 3.38.
As to DPNKMAFGCEECGKKYDTMLGYKR [N17D], the protein stability index is 2.33.
The result for DPNKMAFGCEECGKKYHTMLGYKR [N17H] reads 2.91.

The record behind these values is the supplement of paper PMC10567573.
